The results in this text go back to article PMC13107553.

The target in this experiment is Bicarbonate Transporter Related protein-1 (BTR1), human (human) (UniProt Q8NBS3). Put plainly: cryo-EM structure; BTR1 in LMNG/CHS micelle buffer; 140 mmol/L KCl, pH 7.5, 3.25 Å; further structures in 11 buffer conditions (KCl, NaCl, NH4Cl, NH4Cl + NaCl, boric acid; varying pH), 13 states, inward- and outward-facing.

Broadly, the stoichiometry N is a count of units in the complex or per binding partner. In the case of “Bicarbonate Transporter Related protein-1 (BTR1), human (from UniProt Q8NBS3 1-875) (natural protein)”, the stoichiometry N turned out to be 2.
